From PMC11162770, “The mutation R107Q alters mtSSB ssDNA compaction ability and binding dynamics” (Nucleic Acids Research, 2024)

Assays:
[1] = biological target: T1, mtSSB WT-Alexa555/647 (human) (UniProt Q04837); assay: competition; conditions: WT-Alexa647 vs R107Q-Alexa555 150 nM each (1:1); 24% of ssDNA WT only, 76% both; EMSA: 20 mM Tris-HCl pH 7.8, 10 mM MgCl2, 0.1 mg/ml BSA, 10 mM DTT, 10% glycerol, 2 mM ATP, room temperature; TIRF: ssDNA diluted in 20 mM TrisOAc pH 8, 20% …
T1 sequence: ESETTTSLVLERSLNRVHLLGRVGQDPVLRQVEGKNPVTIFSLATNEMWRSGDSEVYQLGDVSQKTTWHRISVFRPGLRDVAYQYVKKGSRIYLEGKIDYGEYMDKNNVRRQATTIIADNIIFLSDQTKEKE

[2] = system: mtSSB R107Q-Alexa555/647 (human); assay: competition; conditions: EMSA: 20 mM Tris-HCl pH 7.8, 10 mM MgCl2, 0.1 mg/ml BSA, 10 mM DTT, 10% glycerol, 2 mM ATP
[3] = biological target: T1, mtSSB WT-Alexa555/647 (human); assay: TIRF dissociation; conditions: EMSA: 20 mM Tris-HCl pH 7.8, 10 mM MgCl2, 0.1 mg/ml BSA, 10 mM DTT, 10% glycerol, 2 mM ATP, room temperature, TIRF: ssDNA diluted in 20 mM TrisOAc pH 8, 20% …
[4] = system: mtSSB R107Q-Alexa555/647 (human); assay: TIRF dissociation; conditions: unwrapping almost 3 times faster than WT, EMSA: 20 mM Tris-HCl pH 7.8, 10 mM MgCl2, 0.1 mg/ml BSA, 10 mM DTT, 10% glycerol, 2 mM ATP, room temperature, TIRF: ssDNA diluted in 20 mM TrisOAc pH 8, 20% …
[5] = biological target: T2, mtSSB R107Q (His-tag, C-terminal Cys) (human, UniProt Q04837 17-148, R107Q); assay: BLI; 1:1 fit; Discussion swaps the 30/60-nt labels; EMSA: 20 mM Tris-HCl pH 7.8, 10 mM MgCl2, 0.1 mg/ml BSA, 10 mM DTT, 10% glycerol, 2 mM ATP, room temperature; TIRF: ssDNA diluted in 20 mM TrisOAc pH 8, 20% sucrose, 20 mM DTT, NaOAc 0-400 mM added; BLI and AFS buffers not in material; conditions: protein: recombinant; tags: N-terminal His; extra C-terminal Cys; chain copies: 4; single strand
T2 sequence: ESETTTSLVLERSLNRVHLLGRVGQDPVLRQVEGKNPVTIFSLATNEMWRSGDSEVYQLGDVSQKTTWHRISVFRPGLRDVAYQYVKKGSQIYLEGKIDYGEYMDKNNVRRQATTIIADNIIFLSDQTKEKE

[6] = biological target: T3, mtSSB WT (His-tag, C-terminal Cys) (human, UniProt Q04837 17-148); assay: as above; conditions: protein: recombinant; tags: N-terminal His; extra C-terminal Cys; chain copies: 4; single strand
T3 sequence: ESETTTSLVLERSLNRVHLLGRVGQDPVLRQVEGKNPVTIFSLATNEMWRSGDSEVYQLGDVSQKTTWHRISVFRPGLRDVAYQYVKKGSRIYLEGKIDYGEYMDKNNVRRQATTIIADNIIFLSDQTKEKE

[7] = biological target: the molecule itself; assay: mass photometry; Refeyn TwoMP; proteins prepared at 1 uM and diluted to 100 nM before measurement; data collected for one minute; oligomeric state in solution (tetramer)

lambda ssDNA
binding signal (% of mtSSB on co-coated ssDNA) [1]: 73 | binding signal (% of mtSSB on co-coated ssDNA) ([2]; R107Q-Alexa555 150 nM vs WT-Alexa647 15 nM (1:0.1), room …, TIRF: ssDNA diluted in 20 mM TrisOAc pH 8, 20% suc): 94 | binding signal (% of ssDNA coated by R107Q only) ([2]; R107Q-Alexa555 vs WT-Alexa647 150 nM each (1:1), bound only together with WT, room temperature, TIRF: ssDNA diluted in 20 mM TrisOAc pH 8, 20% …): 0 | binding signal (% lost after salt) ([3]; 100 mM NaOAc): 20 | binding signal (% lost after salt) ([3]; 400 mM NaOAc): 20 | binding signal (% lost after salt) ([4]; 100 mM NaOAc): 40 | binding signal (% lost after salt) ([4]; 400 mM NaOAc): 77

TTTTTTTTTTTTTTTTTTTTTTTTTTTTTT (ssDNA) [poly-dT30]
Kd [5]: 1.35 ± 0.04 nM | Kd [6]: 2.18 ± 0.1 nM

B1: poly-dT60 (ssDNA)
DNA: TTTTTTTTTTTTTTTTTTTTTTTTTTTTTTTTTTTTTTTTTTTTTTTTTTTTTTTTTTTT
Kd [5]: 1.18 ± 0.02 nM | Kd [6]: 1.17 ± 0.02 nM

B2: Mitochondrial single-stranded DNA-binding protein, wild type (mtSSB^WT), lacking the mitochondrial targeting sequence, with N-terminal His-tag and C-terminal … (natural protein, human)
chain: ESETTTSLVLERSLNRVHLLGRVGQDPVLRQVEGKNPVTIFSLATNEMWRSGDSEVYQLGDVSQKTTWHRISVFRPGLRDVAYQYVKKGSRIYLEGKIDYGEYMDKNNVRRQATTIIADNIIFLSDQTKEKEC
notes: one cysteine residue added at the C-terminus for maleimide labelling; not shown: His-tag, N-terminal, kept
stoichiometry N [7]: 4

B3: Mitochondrial single-stranded DNA-binding protein variant R107Q (mtSSB^R107Q), lacking the mitochondrial targeting sequence, with N-terminal His-tag and … (natural protein, human)
chain: ESETTTSLVLERSLNRVHLLGRVGQDPVLRQVEGKNPVTIFSLATNEMWRSGDSEVYQLGDVSQKTTWHRISVFRPGLRDVAYQYVKKGSQIYLEGKIDYGEYMDKNNVRRQATTIIADNIIFLSDQTKEKEC
notes: one cysteine residue added at the C-terminus for maleimide labelling; R107Q is a variant found in patients; PDB 6RUP is the wild-type parent's structure; not shown: His-tag, N-terminal, kept
stoichiometry N [7]: 4
